From patent US20090081226A1
One block for each substance: values may come before it.

Legend:
[1] = target: CD94/NKG2A receptor (human) (UniProt Q13241); test: cell-based or functional assay
[2] = target: membrane-bound HLA-E (human); test: cell-based or functional assay
[3] = target: membrane-bound HLA-E (human); test: flow cytometry on a panel of 22 melanoma cell lines
[4] = target: membrane-bound HLA-E (human); test: flow cytometry on short term cultured melanocytes

Chain of UniProt Q13241 (Q13241 other isoform, or with tags, fused parts or gaps, chain 1 of 2): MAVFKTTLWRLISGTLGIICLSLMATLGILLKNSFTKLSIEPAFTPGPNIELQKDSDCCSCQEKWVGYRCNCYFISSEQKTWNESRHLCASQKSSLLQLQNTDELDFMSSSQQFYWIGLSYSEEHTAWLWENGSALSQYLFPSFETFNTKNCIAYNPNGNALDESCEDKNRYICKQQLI
Chain of UniProt Q13241 (chain, as listed by the source, chain 2 of 2): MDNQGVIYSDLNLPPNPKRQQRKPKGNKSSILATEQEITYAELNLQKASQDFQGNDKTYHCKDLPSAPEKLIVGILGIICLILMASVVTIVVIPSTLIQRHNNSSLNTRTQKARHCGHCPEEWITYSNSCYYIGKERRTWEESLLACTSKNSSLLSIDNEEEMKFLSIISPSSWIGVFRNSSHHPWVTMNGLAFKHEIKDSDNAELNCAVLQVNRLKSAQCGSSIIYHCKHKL

Substance: membrane-bound HLA-E (from UniProt P61769 21-119) (peptide-MHC)
NK-mediated cytotoxicity, specific lysis (51Cr release) of ECs (% specific lysis) [1]: 2.6

Substance: anti-HLA-E mAb MEM-E/06 (antibody)
NK-mediated cytotoxicity, specific lysis (51Cr release) of IFNγ-activated HAEC (% specific lysis) [2]: 34.9

ratio fluorescence intensity (RFI) (ratio (MFI test / MFI negative control)) [3]: 1 to 4
ratio fluorescence intensity (RFI) (ratio (MFI test / MFI negative control)) [4]: 3 to 7
Substance: anti-HLA-E mAb MEM-E/07 (antibody)
